Where no end group is shown, it is not given here.
Biological target: Recombinant His-tagged Hsp70 protein, equivalent to HSPA1A
Test: ELISA; peptide ELISA: heat shock proteins coated on MaxiSorp plates (1 µg/well/100 µl, carbonate buffer pH 9.6, 4°C overnight), blocked with PBS 2% BSA; CF-labeled peptides 100, 50, 25 ng/ml, 27°C 30 min; fluorescence counts read

TKDNNLLGRFELSG (also: carboxyfluorescein (CF) label, position not given here) [carboxy-fluorescein (CF-) labeled 14-mer tumor penetrating peptide (TPP)]
fluorescence counts: 1200 counts

From paper PMC4148261
